Here are results for seven molecules from patent publication US20250361322A1 (ICONIC THERAPEUTICS, published 2025).

Holding throughout (assay): cell-based or functional assay
In assay [1] the target is Relipidated TF (UniProt P13726 33-295, limits assumed).
Assay [2] has as its target human Tissue Factor (hTF) (human, UniProt P13726 33-295).
In assay [3] the target is Relipidated TF.

B1: 39A (antibody, IgG1, V domains shown)
VH: QVQLVQSGAEVKKPGSSVKVSCKASGGTFSSNAIGWVRQAPGQGLEWMGSIIPIIGFANYAQKFQGRVTITADESTSTAYMELSSLRSEDTAVYYCARDSGYYYGASSFGMDVWGQGTTVTVSS
VL: EIVMTQSPATLSVSPGERATLSCRASQSVSSNLAWYQQKPGQAPRLLIYGASTRATGIPARFSGSGSGTEFTLTISSLQSEDFAVYYCEQYNNLPLTFGGGTKVEIK
For B1, in the assay with Relipidated TF [1], the “% ETP, Ab conc. 10 nM” value stood at 84%; the “% Peak IIa, Ab conc. 10 nM” value is 37%; the “% Peak IIa, Ab conc. 50 nM” value amounted to 11%; the “% Peak IIa, Ab conc. 100 nM” value worked out at 9%. For the same molecule, in the assay with Relipidated TF [1], the “% ttPeak, Ab conc. 10 nM” value turned out to be 135%; the “% ttPeak, Ab conc. 50 nM” value was 397%; the “% ttPeak, Ab conc. 100 nM” value was 465%.

B2: anti-TF antibody 1F (antibody, human IgG1, V domains shown)
VH: EVQLLESGGGLVQPGGSLRLSCAASGFTFSDYAMGWVRQAPGKGLEWVSTISGSGGLTYYADSVKGRFTISRDNSKNTLYLQMNSLRAEDTAVYYCAKAPYGYYMDVWGKGTTVTVSS
VL: not shown
As for B2, the “IC50, cell viability of A431 cells, Secondary ADC (antibody with anti-human Fc Fab:MMAF), Continuous (FIG. 18B)” value (shortened to “IC50, cell viability of A431 cells”) in assay [2] stood at 70 pM. Moreover, in the assay with Relipidated TF [3], the “% ETP, TGA with 10 min antibody pre-incubation, 10 nM antibody” value was determined as 41%; the “% Peak IIa, TGA with 10 min antibody pre-incubation, 10 nM antibody” value was 16%; the “% Peak IIa, TGA with 10 min antibody pre-incubation, 50 nM antibody” value was 8%; the “% Peak IIa, TGA with 10 min antibody pre-incubation, 100 nM antibody” value is 7%. In the assay with Relipidated TF [3], the “% ttPeak, TGA with 10 min antibody pre-incubation, 10 nM antibody” value was 220%; the “% ttPeak, TGA with 10 min antibody pre-incubation, 50 nM antibody” value is 433%; the “% ttPeak, TGA with 10 min antibody pre-incubation, 100 nM antibody” value was found to be 483%; the “ETP, TGA with 10 min antibody pre-incubation, 10 nM antibody” value turned out to be 742 nM·min. In the assay with Relipidated TF [3], the “Lag Time, TGA with 10 min antibody pre-incubation, 10 nM antibody” value is 13.8 min; the “Lag Time, TGA with 10 min antibody pre-incubation, 50 nM antibody” value came to 26.5 min; the “Lag Time, TGA with 10 min antibody pre-incubation, 100 nM antibody” value was 29.5 min; the “Peak IIa, TGA with 10 min antibody pre-incubation, 10 nM antibody” value was 44 nM. Besides, in the assay with Relipidated TF [3], the “Peak IIa, TGA with 10 min antibody pre-incubation, 50 nM antibody” value came out at 23 nM; the “Peak IIa, TGA with 10 min antibody pre-incubation, 100 nM antibody” value amounted to 20 nM; the “ttPeak, TGA with 10 min antibody pre-incubation, 10 nM antibody” value is 22.4 min; the “ttPeak, TGA with 10 min antibody pre-incubation, 50 nM antibody” value came out at 37.3 min. In the assay with Relipidated TF [3], the “ttPeak, TGA with 10 min antibody pre-incubation, 100 nM antibody” value turned out to be 40.8 min.

B3: anti-TF antibody 29E (antibody, human IgG1, V domains shown)
VH: QVQLVESGGGVVQPGRSLRLSCAASGFTFRSYGMHWVRQAPGKGLEWVAVITYDGINKYYADSVEGRFTISRDNSKNTLYLQMNSLRAEDTAVYYCARDGVYYGVYDYWGQGTLVTVSS
VL: not shown
As to B3, the “IC50, cell viability of A431 cells” value in assay [2] is 100 pM. Besides, in the assay with Relipidated TF [3], the “% ETP, TGA with 10 min antibody pre-incubation, 10 nM antibody” value stood at 77%; the “% ETP, TGA with 10 min antibody pre-incubation, 50 nM antibody” value stood at 72%; the “% ETP, TGA with 10 min antibody pre-incubation, 100 nM antibody” value amounted to 66%; the “% Peak IIa, TGA with 10 min antibody pre-incubation, 10 nM antibody” value turned out to be 36%. Moreover, in the assay with Relipidated TF [3], the “% Peak IIa, TGA with 10 min antibody pre-incubation, 50 nM antibody” value was determined as 30%; the “% Peak IIa, TGA with 10 min antibody pre-incubation, 100 nM antibody” value is 28%; the “% ttPeak, TGA with 10 min antibody pre-incubation, 10 nM antibody” value stood at 159%; the “% ttPeak, TGA with 10 min antibody pre-incubation, 50 nM antibody” value turned out to be 237%. Besides, in the assay with Relipidated TF [3], the “% ttPeak, TGA with 10 min antibody pre-incubation, 100 nM antibody” value is 247%; the “ETP, TGA with 10 min antibody pre-incubation, 10 nM antibody” value was 1410 nM·min; the “ETP, TGA with 10 min antibody pre-incubation, 50 nM antibody” value came out at 1300 nM·min; the “ETP, TGA with 10 min antibody pre-incubation, 100 nM antibody” value is 1200 nM·min. Also, in the assay with Relipidated TF [3], the “Lag Time, TGA with 10 min antibody pre-incubation, 10 nM antibody” value came out at 9.4 min; the “Lag Time, TGA with 10 min antibody pre-incubation, 50 nM antibody” value came out at 14.1 min; the “Lag Time, TGA with 10 min antibody pre-incubation, 100 nM antibody” value worked out at 14.7 min; the “Peak IIa, TGA with 10 min antibody pre-incubation, 10 nM antibody” value was found to be 98 nM. Further, in the assay with Relipidated TF [3], the “Peak IIa, TGA with 10 min antibody pre-incubation, 50 nM antibody” value was 83 nM; the “Peak IIa, TGA with 10 min antibody pre-incubation, 100 nM antibody” value stood at 76 nM; the “ttPeak, TGA with 10 min antibody pre-incubation, 10 nM antibody” value was 18.1 min; the “ttPeak, TGA with 10 min antibody pre-incubation, 50 nM antibody” value came to 23.6 min. Moreover, the “ttPeak, TGA with 10 min antibody pre-incubation, 100 nM antibody” value with Relipidated TF [3] was determined as 24.3 min.

B4: 43B1 (antibody, IgG1, V domains shown)
VH: QVQLQESGPGLVKPSQTLSLTCTVSGGSISSGQYWSWIRQHPGKGLEWIGEIYYSGSTRYNPSLKSRVTISVDTSKNQFSLKLSSVTAADTAVYYCARDAPYYYGGGYYYYMDVWGKGTTVTVSS
VL: EIVLTQSPGTLSLSPGERATLSCRASESVDSSYLAWYQQKPGQAPRLLIYGASTRQTGIPDRFSGSGSGTDFTLTISRLEPEDFAVYYCQQAGVVPYTFGGGTKVEIK
For the molecule B4, in the assay with Relipidated TF [1], the “% Peak IIa, Ab conc. 10 nM” value amounted to 89%; the “% Peak IIa, Ab conc. 50 nM” value came out at 72%; the “% ttPeak, Ab conc. 10 nM” value amounted to 9%; the “% ttPeak, Ab conc. 50 nM” value worked out at 29%. For the same molecule, the “% ttPeak, Ab conc. 100 nM” value in the assay with Relipidated TF [1] is 37%.

B5: anti-TF antibody 43Ea (antibody, human IgG1, V domains shown)
VH: QVQLQESGPGLVKPSQTLSLTCTVSGGSISSGQYWSWIRQHPGKGLEWIGEIYYSGSTRYNPSLKSRVTISVDTSKNQFSLKLSSVTAADTAVYYCARDTPYYYDGGYYYYMDVWGKGTTVTVSS
VL: EIVLTQSPGTLSLSPGERATLSCRASQSVSSSYLAWYQQKPGQAPRLLIYGASSRATGIPDRFSGSGSGTDFTLTISRLEPEDFAVYYCQQVGVVPYTFGGGTKVEIK
For the molecule B5, in assay [2], the “IC50, cell viability of A431 cells” value is 130 pM.

B6: anti-TF antibody 43B1 (antibody, human IgG1, V domains shown)
VH: QVQLQESGPGLVKPSQTLSLTCTVSGGSISSGQYWSWIRQHPGKGLEWIGEIYYSGSTRYNPSLKSRVTISVDTSKNQFSLKLSSVTAADTAVYYCARDAPYYYGGGYYYYMDVWGKGTTVTVSS
VL: EIVLTQSPGTLSLSPGERATLSCRASESVDSSYLAWYQQKPGQAPRLLIYGASTRQTGIPDRFSGSGSGTDFTLTISRLEPEDFAVYYCQQAGVVPYTFGGGTKVEIK
B6: the “IC50, cell viability of A431 cells” value in assay [2] is 120 pM.

B7: 5G9 (humanized TF8-5G9, CNTO 860) (antibody, V domains shown)
VH: QVQLVESGGGVVQPGRSLRLSCKASGFNIKDYYMHWVRQAPGKGLEWIGLIDPENGNTIYDPKFQGRFTISADNSKNTLFLQMDSLRPEDTAVYYCARDNSYYFDYWGQGTPVTVSS
VL: DIQMTQSPSSLSASVGDRVTITCKASQDIRKYLNWYQQKPGKAPKLLIYYATSLADGVPSRFSGSGSGTDYTFTISSLQPEDIATYYCLQHGESPYTFGQGTKLEIT
For B7, in the assay with Relipidated TF [1], the “% ETP, Ab conc. 10 nM” value was 58%; the “% Peak IIa, Ab conc. 10 nM” value was found to be 24%; the “% Peak IIa, Ab conc. 50 nM” value worked out at 8%; the “% Peak IIa, Ab conc. 100 nM” value is 8%. Besides, in the assay with Relipidated TF [1], the “% ttPeak, Ab conc. 10 nM” value was found to be 135%; the “% ttPeak, Ab conc. 50 nM” value worked out at 338%; the “% ttPeak, Ab conc. 100 nM” value is 401%.
